{"source": "patent US11230581B2", "about": "“Peptides and combination of peptides for use in immunotherapy against ovarian cancer and other cancers” (Immatics Biotechnologies GmbH, priority 2015, dated 2022)"}
{"target": "HLA-A*02:01 (Homo sapiens, UniProt P04439, D140Y/D185E/D98H/E176V/E277Q/G131W/G231S/I119V/I121R/I166T/I218V/L300P/L318F/N151K/N90K/P208A/P217A/Q86G/Q94H/R138H/R169H/T345S)", "assay": "MHC binding assay (UV-ligand exchange, β2m ELISA, peptide exchange yield)", "conditions": "binding of HLA-class I restricted peptides to HLA-A*02:01, UV-ligand exchange", "how_it_was_run": "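Yield of stabilized complexes quantified via the β2m light chain in an ELISA (streptavidin capture, 100-fold diluted monomers, HRP anti-β2m 2 ug/ml at 37 °C, TMB, A450). The complexes come from UV-triggered replacement of a photocleavable ligand by the candidate peptide.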"}
{"substance": "458 (SLIDKLYNI; listed as Homo sapiens) [compound 458]", "Peptide exchange (MHC class I binding score, peptide exchange yield)": "“++” (≥20% = ++)"}
{"substance": "459 (ALITEVVRL; listed as Homo sapiens) [compound 459]", "Peptide exchange (MHC class I binding score, peptide exchange yield)": "“++” (≥20% = ++)"}
{"substance": "460 (AMLEKNYKL; listed as Homo sapiens) [compound 460]", "Peptide exchange (MHC class I binding score, peptide exchange yield)": "“++++” (≥75% = ++++)"}
{"substance": "461 (VMFRTPLASV; listed as Homo sapiens) [compound 461]", "Peptide exchange (MHC class I binding score, peptide exchange yield)": "“++” (≥20% = ++)"}
{"substance": "462 (KLAKQPETV; listed as Homo sapiens) [compound 462]", "Peptide exchange (MHC class I binding score, peptide exchange yield)": "“+++” (≥50 = +++)"}
{"substance": "463 (SLVESHLSDQLTL; listed as Homo sapiens) [compound 463]", "Peptide exchange (MHC class I binding score, peptide exchange yield)": "“+++” (≥50 = +++)"}
{"substance": "464 (ALNDCIYSV; listed as Homo sapiens) [compound 464]", "Peptide exchange (MHC class I binding score, peptide exchange yield)": "“+++” (≥50 = +++)"}
{"substance": "465 (QLCDLNAEL; listed as Homo sapiens) [compound 465]", "Peptide exchange (MHC class I binding score, peptide exchange yield)": "“+++” (≥50 = +++)"}
{"substance": "466 (VLIANLEKL; listed as Homo sapiens) [compound 466]", "Peptide exchange (MHC class I binding score, peptide exchange yield)": "“++++” (≥75% = ++++)"}
{"substance": "467 (FLAKDFNFL; listed as Homo sapiens) [compound 467]", "Peptide exchange (MHC class I binding score, peptide exchange yield)": "“+++” (≥50 = +++)"}
{"substance": "468 (YLRSVGDGETV; listed as Homo sapiens) [compound 468]", "Peptide exchange (MHC class I binding score, peptide exchange yield)": "“+++” (≥50 = +++)"}
{"substance": "469 (YLASDEITTV; listed as Homo sapiens) [compound 469]", "Peptide exchange (MHC class I binding score, peptide exchange yield)": "“+++” (≥50 = +++)"}
{"substance": "471 (YLYNNMIAKI; listed as Homo sapiens) [compound 471]", "Peptide exchange (MHC class I binding score, peptide exchange yield)": "“+++” (≥50 = +++)"}
{"substance": "472 (KLLEVSDDPQV; listed as Homo sapiens) [compound 472]", "Peptide exchange (MHC class I binding score, peptide exchange yield)": "“+++” (≥50 = +++)"}
{"substance": "473 (AMATESILHFA; listed as Homo sapiens) [compound 473]", "Peptide exchange (MHC class I binding score, peptide exchange yield)": "“+++” (≥50 = +++)"}
{"substance": "474 (YLDPALELGPRNV; listed as Homo sapiens) [compound 474]", "Peptide exchange (MHC class I binding score, peptide exchange yield)": "“+++” (≥50 = +++)"}
{"substance": "475 (LLLNEEALAQI; listed as Homo sapiens) [compound 475]", "Peptide exchange (MHC class I binding score, peptide exchange yield)": "“+++” (≥50 = +++)"}
{"substance": "476 (ALMERTGYSMV; listed as Homo sapiens) [compound 476]", "Peptide exchange (MHC class I binding score, peptide exchange yield)": "“+++” (≥50 = +++)"}
{"substance": "477 (ALLPASGQIAL; listed as Homo sapiens) [compound 477]", "Peptide exchange (MHC class I binding score, peptide exchange yield)": "“+++” (≥50 = +++)"}
{"substance": "478 (YLLHEKLNL; listed as Homo sapiens) [compound 478]", "Peptide exchange (MHC class I binding score, peptide exchange yield)": "“+++” (≥50 = +++)"}
{"substance": "479 (SLFGNSGILENV; listed as Homo sapiens) [compound 479]", "Peptide exchange (MHC class I binding score, peptide exchange yield)": "“+++” (≥50 = +++)"}
{"substance": "480 (ALLEDSCHYL; listed as Homo sapiens) [compound 480]", "Peptide exchange (MHC class I binding score, peptide exchange yield)": "“+++” (≥50 = +++)"}
{"substance": "481 (GLIEDYEALL; listed as Homo sapiens) [compound 481]", "Peptide exchange (MHC class I binding score, peptide exchange yield)": "“+++” (≥50 = +++)"}
{"substance": "484 (SLIEKVTQL; listed as Homo sapiens) [compound 484]", "Peptide exchange (MHC class I binding score, peptide exchange yield)": "“+++” (≥50 = +++)"}
{"substance": "485 (NVPDSFNEV; listed as Homo sapiens) [compound 485]", "Peptide exchange (MHC class I binding score, peptide exchange yield)": "“+++” (≥50 = +++)"}
{"substance": "486 (AVMESIQGV; listed as Homo sapiens) [compound 486]", "Peptide exchange (MHC class I binding score, peptide exchange yield)": "“+++” (≥50 = +++)"}
{"substance": "487 (LLINSVFHV; listed as Homo sapiens) [compound 487]", "Peptide exchange (MHC class I binding score, peptide exchange yield)": "“+++” (≥50 = +++)"}
